From the supplement of paper PMC7125110
± gives the standard error. This sample holds only a part of the variants without activity.

B1: glmS ribozyme (parent)
chain: AUAAAAGCGCCAGAACUACAGAAAUGUAGUUGACGAGGAGGAGGUUUAUCGAAUUUUCGGCGGAUGCCUCCAAA

Tests used:
Details in all cases: with glucosamine-6-phosphate
[1] = variants of: B1; assay: self-cleavage kobs at 40 uM GlcN6P; higher = faster cleavage; RNA array
Method in brief: (§1)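 Glucosamine-6-phosphate in HEPES/KCl/Mg(OAc)2 buffer, at 40 μM to 10 mM, was flowed over barcoded ribozyme variants transcribed in situ by E. coli RNA polymerase on sequenced MiSeq chips. Tracking was through a hybridised Cy3 probe at 37 °C. kobs, kcat and KM came from exponential decay fits and weighted Michaelis–Menten fits of normalised per-tile medians.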

[2] = variants of: B1; assay: self-cleavage kobs at 2500 uM GlcN6P; higher = faster cleavage; RNA array
Method in brief: as §1

[3] = variants of: B1; assay: self-cleavage kobs at 10000 uM GlcN6P; higher = faster cleavage; RNA array
Method in brief: as §1

[4] = variants of: B1; assay: self-cleavage kobs at 160 uM GlcN6P; higher = faster cleavage; RNA array
Method in brief: as §1

[5] = variants of: B1; assay: self-cleavage kobs at 640 uM GlcN6P; higher = faster cleavage; RNA array
Method in brief: as §1

For C11G U31A C50G U57G, the “self-cleavage kobs at 40 uM GlcN6P” value [1] was 0.000129 ± 3.6e-05 s⁻¹, the “self-cleavage kobs at 2500 uM GlcN6P” value [2] was 7.48e-05 ± 3e-05 s⁻¹ and the “self-cleavage kobs at 10000 uM GlcN6P” value [3] was 5.06e-05 ± 1.6e-05 s⁻¹.

G7A U30G U45G C67G C68A was tested, and the “self-cleavage kobs at 40 uM GlcN6P” value [1] was 0.000126 ± 4e-05 s⁻¹ and the “self-cleavage kobs at 10000 uM GlcN6P” value [3] was 0.00014 ± 3.6e-05 s⁻¹.

With G13C A39C U47G the “self-cleavage kobs at 40 uM GlcN6P” value [1] was < 1e-05 s⁻¹, the “self-cleavage kobs at 160 uM GlcN6P” value [4] was < 1e-05 s⁻¹ and the “self-cleavage kobs at 2500 uM GlcN6P” value [2] was < 1e-05 s⁻¹.

With G37A G59U C61U the “self-cleavage kobs at 40 uM GlcN6P” value [1] was < 1e-05 s⁻¹ and the “self-cleavage kobs at 10000 uM GlcN6P” value [3] was < 1e-05 s⁻¹.

For C11G U31A U49G, the “self-cleavage kobs at 40 uM GlcN6P” value [1] was < 1e-05 s⁻¹.

U47G C70G C71G was tested, and the “self-cleavage kobs at 40 uM GlcN6P” value [1] was 8.97e-05 ± 2.5e-05 s⁻¹.

For G44A C70G, the “self-cleavage kobs at 40 uM GlcN6P” value [1] was < 1e-05 s⁻¹, the “self-cleavage kobs at 160 uM GlcN6P” value [4] was < 1e-05 s⁻¹ and the “self-cleavage kobs at 640 uM GlcN6P” value [5] was < 1e-05 s⁻¹. For the same variant, the “self-cleavage kobs at 2500 uM GlcN6P” value [2] was < 1e-05 s⁻¹ and the “self-cleavage kobs at 10000 uM GlcN6P” value [3] was < 1e-05 s⁻¹.

In the case of A6U A48C C50U A52U C61U C67G C68G, the “self-cleavage kobs at 40 uM GlcN6P” value [1] is reported as < 1e-05 s⁻¹.

In the case of C11U A33G, the “self-cleavage kobs at 40 uM GlcN6P” value [1] is reported as < 1e-05 s⁻¹, the “self-cleavage kobs at 160 uM GlcN6P” value [4] is reported as < 1e-05 s⁻¹ and the “self-cleavage kobs at 2500 uM GlcN6P” value [2] is reported as < 1e-05 s⁻¹. The “self-cleavage kobs at 10000 uM GlcN6P” value [3] was < 1e-05 s⁻¹.

With A33C A48G the “self-cleavage kobs at 40 uM GlcN6P” value [1] was < 1e-05 s⁻¹, the “self-cleavage kobs at 160 uM GlcN6P” value [4] was < 1e-05 s⁻¹ and the “self-cleavage kobs at 640 uM GlcN6P” value [5] was < 1e-05 s⁻¹. The “self-cleavage kobs at 10000 uM GlcN6P” value [3] was < 1e-05 s⁻¹.

With A28G G43C U45A C67G the “self-cleavage kobs at 40 uM GlcN6P” value [1] was < 1e-05 s⁻¹.

With C11G A36G U49A U65C C70U the “self-cleavage kobs at 40 uM GlcN6P” value [1] was < 1e-05 s⁻¹ and the “self-cleavage kobs at 10000 uM GlcN6P” value [3] was < 1e-05 s⁻¹.

With U31C C34A C68U the “self-cleavage kobs at 40 uM GlcN6P” value [1] was < 1e-05 s⁻¹ and the “self-cleavage kobs at 10000 uM GlcN6P” value [3] was < 1e-05 s⁻¹.

With A12C G38A G51A G59U C68U the “self-cleavage kobs at 40 uM GlcN6P” value [1] was < 1e-05 s⁻¹ and the “self-cleavage kobs at 10000 uM GlcN6P” value [3] was < 1e-05 s⁻¹.

With A36U C50G the “self-cleavage kobs at 40 uM GlcN6P” value [1] was 6.51e-05 ± 1.4e-05 s⁻¹, the “self-cleavage kobs at 160 uM GlcN6P” value [4] was 8.01e-05 ± 1.4e-05 s⁻¹ and the “self-cleavage kobs at 640 uM GlcN6P” value [5] was 2.94e-05 ± 1.3e-05 s⁻¹. The “self-cleavage kobs at 2500 uM GlcN6P” value [2] was 0.000455 ± 0.00018 s⁻¹.

For A15C G35U, the “self-cleavage kobs at 40 uM GlcN6P” value [1] was < 1e-05 s⁻¹, the “self-cleavage kobs at 160 uM GlcN6P” value [4] was < 1e-05 s⁻¹ and the “self-cleavage kobs at 640 uM GlcN6P” value [5] was < 1e-05 s⁻¹. The “self-cleavage kobs at 2500 uM GlcN6P” value [2] was < 1e-05 s⁻¹.

In the case of G7U G35A G40C G43C C58G, the “self-cleavage kobs at 40 uM GlcN6P” value [1] is reported as < 1e-05 s⁻¹.

With A6U C11G G29C U45C the “self-cleavage kobs at 40 uM GlcN6P” value [1] was < 1e-05 s⁻¹.

G35U A42U was tested, and the “self-cleavage kobs at 40 uM GlcN6P” value [1] was < 1e-05 s⁻¹, the “self-cleavage kobs at 160 uM GlcN6P” value [4] was < 1e-05 s⁻¹ and the “self-cleavage kobs at 640 uM GlcN6P” value [5] was < 1e-05 s⁻¹. For the same variant, the “self-cleavage kobs at 2500 uM GlcN6P” value [2] was < 1e-05 s⁻¹.

For C11G G13A G41U U45G G66A, the “self-cleavage kobs at 40 uM GlcN6P” value [1] was < 1e-05 s⁻¹.

For A6G C11A C50G C58U, the “self-cleavage kobs at 40 uM GlcN6P” value [1] was 0.000139 ± 2.5e-05 s⁻¹.

For G7U A14C U56G, the “self-cleavage kobs at 40 uM GlcN6P” value [1] was < 1e-05 s⁻¹, the “self-cleavage kobs at 160 uM GlcN6P” value [4] was < 1e-05 s⁻¹ and the “self-cleavage kobs at 640 uM GlcN6P” value [5] was < 1e-05 s⁻¹. The “self-cleavage kobs at 2500 uM GlcN6P” value [2] was < 1e-05 s⁻¹ and the “self-cleavage kobs at 10000 uM GlcN6P” value [3] was < 1e-05 s⁻¹.

G7C A39U was tested, and the “self-cleavage kobs at 40 uM GlcN6P” value [1] was < 1e-05 s⁻¹, the “self-cleavage kobs at 640 uM GlcN6P” value [5] was < 1e-05 s⁻¹ and the “self-cleavage kobs at 10000 uM GlcN6P” value [3] was < 1e-05 s⁻¹.

For A12U C16G, the “self-cleavage kobs at 40 uM GlcN6P” value [1] was 0.000539 ± 9e-05 s⁻¹, the “self-cleavage kobs at 160 uM GlcN6P” value [4] was 0.000549 ± 0.00013 s⁻¹ and the “self-cleavage kobs at 640 uM GlcN6P” value [5] was 0.00491 ± 0.0008 s⁻¹. For the same variant, the “self-cleavage kobs at 2500 uM GlcN6P” value [2] was 0.00786 ± 0.0024 s⁻¹ and the “self-cleavage kobs at 10000 uM GlcN6P” value [3] was 0.0117 ± 0.0031 s⁻¹.
